The chains are these.
B1: Analog 053-2 (peptide)
peptide: Y[Aib]EGTFTSDYSIYMEKEAVEEFIAWLVKG-NH2
modifications: lactam 16-20; N-terminus assumed
SMILES: CC[C@H](C)[C@H](NC(=O)[C@H](Cc1ccccc1)NC(=O)[C@H](CCC(=O)O)NC(=O)[C@@H]1CCC(=O)NCCCC[C@H](NC(=O)[C@H](CCC(=O)O)NC(=O)[C@H](CCSC)NC(=O)[C@H](Cc2ccc(O)cc2)NC(=O)[C@@H](NC(=O)[C@H](CO)NC(=O)[C@H](Cc2ccc(O)cc2)NC(=O)[C@H](CC(=O)O)NC(=O)[C@H](CO)NC(=O)[C@@H](NC(=O)[C@H](Cc2ccccc2)NC(=O)[C@@H](NC(=O)CNC(=O)[C@H](CCC(=O)O)NC(=O)C(C)(C)NC(=O)[C@@H](N)Cc2ccc(O)cc2)[C@@H](C)O)[C@@H](C)O)[C@@H](C)CC)C(=O)N[C@@H](CCC(=O)O)C(=O)N[C@@H](C)C(=O)N[C@@H](C(C)C)C(=O)N1)C(=O)N[C@@H](C)C(=O)N[C@@H](Cc1c[nH]c2ccccc12)C(=O)N[C@@H](CC(C)C)C(=O)N[C@H](C(=O)N[C@@H](CCCCN)C(=O)NCC(N)=O)C(C)C
B2: Analog 052-2 (peptide)
peptide: Y[Aib]EGTFTSDYSEYMEKEAVREFIAWLVKG-NH2
modifications: lactam 12-16; N-terminus assumed
SMILES: CC[C@H](C)[C@H](NC(=O)[C@H](Cc1ccccc1)NC(=O)[C@H](CCC(=O)O)NC(=O)[C@H](CCCNC(=N)N)NC(=O)[C@@H](NC(=O)[C@H](C)NC(=O)[C@H](CCC(=O)O)NC(=O)[C@@H]1CCCCNC(=O)CC[C@H](NC(=O)[C@H](CO)NC(=O)[C@H](Cc2ccc(O)cc2)NC(=O)[C@H](CC(=O)O)NC(=O)[C@H](CO)NC(=O)[C@@H](NC(=O)[C@H](Cc2ccccc2)NC(=O)[C@@H](NC(=O)CNC(=O)[C@H](CCC(=O)O)NC(=O)C(C)(C)NC(=O)[C@@H](N)Cc2ccc(O)cc2)[C@@H](C)O)[C@@H](C)O)C(=O)N[C@@H](Cc2ccc(O)cc2)C(=O)N[C@@H](CCSC)C(=O)N[C@@H](CCC(=O)O)C(=O)N1)C(C)C)C(=O)N[C@@H](C)C(=O)N[C@@H](Cc1c[nH]c2ccccc12)C(=O)N[C@@H](CC(C)C)C(=O)N[C@H](C(=O)N[C@@H](CCCCN)C(=O)NCC(N)=O)C(C)C
B3: Analog 060 (peptide)
peptide: Y[Aib]EGTFTSDYSIYMEKEAVREFIAWLVKGKKKKK-NH2
modifications: N-terminus assumed
SMILES: CC[C@H](C)[C@H](NC(=O)[C@H](Cc1ccccc1)NC(=O)[C@H](CCC(=O)O)NC(=O)[C@H](CCCNC(=N)N)NC(=O)[C@@H](NC(=O)[C@H](C)NC(=O)[C@H](CCC(=O)O)NC(=O)[C@H](CCCCN)NC(=O)[C@H](CCC(=O)O)NC(=O)[C@H](CCSC)NC(=O)[C@H](Cc1ccc(O)cc1)NC(=O)[C@@H](NC(=O)[C@H](CO)NC(=O)[C@H](Cc1ccc(O)cc1)NC(=O)[C@H](CC(=O)O)NC(=O)[C@H](CO)NC(=O)[C@@H](NC(=O)[C@H](Cc1ccccc1)NC(=O)[C@@H](NC(=O)CNC(=O)[C@H](CCC(=O)O)NC(=O)C(C)(C)NC(=O)[C@@H](N)Cc1ccc(O)cc1)[C@@H](C)O)[C@@H](C)O)[C@@H](C)CC)C(C)C)C(=O)N[C@@H](C)C(=O)N[C@@H](Cc1c[nH]c2ccccc12)C(=O)N[C@@H](CC(C)C)C(=O)N[C@H](C(=O)N[C@@H](CCCCN)C(=O)NCC(=O)N[C@@H](CCCCN)C(=O)N[C@@H](CCCCN)C(=O)N[C@@H](CCCCN)C(=O)N[C@@H](CCCCN)C(=O)N[C@@H](CCCCN)C(N)=O)C(C)C
B4: Analog 066 (peptide)
peptide: Y[Aib]EGTFTSDYSIYMEKEAVREFIAWLVKGGPSSGAPPPSK-NH2
modifications: N-terminus assumed
SMILES: CC[C@H](C)[C@H](NC(=O)[C@H](Cc1ccccc1)NC(=O)[C@H](CCC(=O)O)NC(=O)[C@H](CCCNC(=N)N)NC(=O)[C@@H](NC(=O)[C@H](C)NC(=O)[C@H](CCC(=O)O)NC(=O)[C@H](CCCCN)NC(=O)[C@H](CCC(=O)O)NC(=O)[C@H](CCSC)NC(=O)[C@H](Cc1ccc(O)cc1)NC(=O)[C@@H](NC(=O)[C@H](CO)NC(=O)[C@H](Cc1ccc(O)cc1)NC(=O)[C@H](CC(=O)O)NC(=O)[C@H](CO)NC(=O)[C@@H](NC(=O)[C@H](Cc1ccccc1)NC(=O)[C@@H](NC(=O)CNC(=O)[C@H](CCC(=O)O)NC(=O)C(C)(C)NC(=O)[C@@H](N)Cc1ccc(O)cc1)[C@@H](C)O)[C@@H](C)O)[C@@H](C)CC)C(C)C)C(=O)N[C@@H](C)C(=O)N[C@@H](Cc1c[nH]c2ccccc12)C(=O)N[C@@H](CC(C)C)C(=O)N[C@H](C(=O)N[C@@H](CCCCN)C(=O)NCC(=O)NCC(=O)N1CCC[C@H]1C(=O)N[C@@H](CO)C(=O)N[C@@H](CO)C(=O)NCC(=O)N[C@@H](C)C(=O)N1CCC[C@H]1C(=O)N1CCC[C@H]1C(=O)N1CCC[C@H]1C(=O)N[C@@H](CO)C(=O)N[C@@H](CCCCN)C(N)=O)C(C)C
B5: Analog 053-1 (peptide)
peptide: Y[Aib]EGTFTSDYSIYMEKEAVEEFIAWLVKG-NH2
modifications: N-terminus assumed
SMILES: CC[C@H](C)[C@H](NC(=O)[C@H](Cc1ccccc1)NC(=O)[C@H](CCC(=O)O)NC(=O)[C@H](CCC(=O)O)NC(=O)[C@@H](NC(=O)[C@H](C)NC(=O)[C@H](CCC(=O)O)NC(=O)[C@H](CCCCN)NC(=O)[C@H](CCC(=O)O)NC(=O)[C@H](CCSC)NC(=O)[C@H](Cc1ccc(O)cc1)NC(=O)[C@@H](NC(=O)[C@H](CO)NC(=O)[C@H](Cc1ccc(O)cc1)NC(=O)[C@H](CC(=O)O)NC(=O)[C@H](CO)NC(=O)[C@@H](NC(=O)[C@H](Cc1ccccc1)NC(=O)[C@@H](NC(=O)CNC(=O)[C@H](CCC(=O)O)NC(=O)C(C)(C)NC(=O)[C@@H](N)Cc1ccc(O)cc1)[C@@H](C)O)[C@@H](C)O)[C@@H](C)CC)C(C)C)C(=O)N[C@@H](C)C(=O)N[C@@H](Cc1c[nH]c2ccccc12)C(=O)N[C@@H](CC(C)C)C(=O)N[C@H](C(=O)N[C@@H](CCCCN)C(=O)NCC(N)=O)C(C)C
B6: Analog 057 (peptide)
peptide: Y[Aib]EGTFTSDYSIYMEKEAVKEFIAWLVKG-NH2
modifications: N-terminus assumed
SMILES: CC[C@H](C)[C@H](NC(=O)[C@H](Cc1ccccc1)NC(=O)[C@H](CCC(=O)O)NC(=O)[C@H](CCCCN)NC(=O)[C@@H](NC(=O)[C@H](C)NC(=O)[C@H](CCC(=O)O)NC(=O)[C@H](CCCCN)NC(=O)[C@H](CCC(=O)O)NC(=O)[C@H](CCSC)NC(=O)[C@H](Cc1ccc(O)cc1)NC(=O)[C@@H](NC(=O)[C@H](CO)NC(=O)[C@H](Cc1ccc(O)cc1)NC(=O)[C@H](CC(=O)O)NC(=O)[C@H](CO)NC(=O)[C@@H](NC(=O)[C@H](Cc1ccccc1)NC(=O)[C@@H](NC(=O)CNC(=O)[C@H](CCC(=O)O)NC(=O)C(C)(C)NC(=O)[C@@H](N)Cc1ccc(O)cc1)[C@@H](C)O)[C@@H](C)O)[C@@H](C)CC)C(C)C)C(=O)N[C@@H](C)C(=O)N[C@@H](Cc1c[nH]c2ccccc12)C(=O)N[C@@H](CC(C)C)C(=O)N[C@H](C(=O)N[C@@H](CCCCN)C(=O)NCC(N)=O)C(C)C
B7: Analog 052-1 (peptide)
peptide: Y[Aib]EGTFTSDYSEYMEKEAVREFIAWLVKG-NH2
modifications: N-terminus assumed
SMILES: CC[C@H](C)[C@H](NC(=O)[C@H](Cc1ccccc1)NC(=O)[C@H](CCC(=O)O)NC(=O)[C@H](CCCNC(=N)N)NC(=O)[C@@H](NC(=O)[C@H](C)NC(=O)[C@H](CCC(=O)O)NC(=O)[C@H](CCCCN)NC(=O)[C@H](CCC(=O)O)NC(=O)[C@H](CCSC)NC(=O)[C@H](Cc1ccc(O)cc1)NC(=O)[C@H](CCC(=O)O)NC(=O)[C@H](CO)NC(=O)[C@H](Cc1ccc(O)cc1)NC(=O)[C@H](CC(=O)O)NC(=O)[C@H](CO)NC(=O)[C@@H](NC(=O)[C@H](Cc1ccccc1)NC(=O)[C@@H](NC(=O)CNC(=O)[C@H](CCC(=O)O)NC(=O)C(C)(C)NC(=O)[C@@H](N)Cc1ccc(O)cc1)[C@@H](C)O)[C@@H](C)O)C(C)C)C(=O)N[C@@H](C)C(=O)N[C@@H](Cc1c[nH]c2ccccc12)C(=O)N[C@@H](CC(C)C)C(=O)N[C@H](C(=O)N[C@@H](CCCCN)C(=O)NCC(N)=O)C(C)C

Bridges are numbered along the chain shown (N, C = ends). Where no end group is shown, it is not given here. [ ]: non-standard residue; d: D form. The star is where a group is joined. Palmitoyl = CCCCCCCCCCCCCCCC(=O)*; Aib = CC(C)(N)C(=O)O

In one assay the target is human GLP-1 receptor (human, UniProt P43220 24-463). Kind of assay: cell-based or functional assay.
Chain of human GLP-1 receptor (P43220 24-463): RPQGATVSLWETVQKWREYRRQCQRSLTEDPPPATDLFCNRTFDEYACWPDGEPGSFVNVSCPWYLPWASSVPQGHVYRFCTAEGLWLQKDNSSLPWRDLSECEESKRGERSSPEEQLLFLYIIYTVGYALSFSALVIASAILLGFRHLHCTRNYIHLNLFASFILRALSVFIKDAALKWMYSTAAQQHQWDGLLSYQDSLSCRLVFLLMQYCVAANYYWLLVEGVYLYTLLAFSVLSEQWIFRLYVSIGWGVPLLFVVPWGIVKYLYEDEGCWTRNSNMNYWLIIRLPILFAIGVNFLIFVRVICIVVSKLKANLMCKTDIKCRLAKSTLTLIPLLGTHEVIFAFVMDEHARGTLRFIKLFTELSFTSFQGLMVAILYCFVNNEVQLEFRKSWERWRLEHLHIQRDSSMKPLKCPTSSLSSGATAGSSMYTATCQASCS
B1: the “EC50, GLP-1 Receptor cAMP induction” value turned out to be 2.96 nM and the “Relative Potency, GLP-1 Receptor” value was found to be 37%.

B2: the “EC50, GLP-1 Receptor cAMP induction” value came to 0.824 nM and the “Relative Potency, GLP-1 Receptor” value is 133%.

For the molecule B3, the “EC50, GLP-1 Receptor cAMP induction” value was 2.97 nM and the “Relative Potency, GLP-1 Receptor” value turned out to be 36.8%.

Regarding B4, the “EC50, GLP-1 Receptor cAMP induction” value stood at 2.5 nM and the “Relative Potency, GLP-1 Receptor” value worked out at 43.7%.

In the case of B5, the “EC50, GLP-1 Receptor cAMP induction” value stood at 12.7 nM.

In the case of Y[Aib]EGTFTSDYSIYMEKEAVREFIAWLVK(Palmitoyl)G-NH2 [Analog 046], the “EC50, GLP-1 Receptor cAMP induction” value turned out to be 6.52 nM.

Regarding B6, the “EC50, GLP-1 Receptor cAMP induction” value worked out at 4.23 nM.

In the case of B7, the “EC50, GLP-1 Receptor cAMP induction” value amounted to 2.5 nM.

The target in the next assay is T1, human GIP receptor (human, UniProt P48546 22-466).
T1 sequence (looked up): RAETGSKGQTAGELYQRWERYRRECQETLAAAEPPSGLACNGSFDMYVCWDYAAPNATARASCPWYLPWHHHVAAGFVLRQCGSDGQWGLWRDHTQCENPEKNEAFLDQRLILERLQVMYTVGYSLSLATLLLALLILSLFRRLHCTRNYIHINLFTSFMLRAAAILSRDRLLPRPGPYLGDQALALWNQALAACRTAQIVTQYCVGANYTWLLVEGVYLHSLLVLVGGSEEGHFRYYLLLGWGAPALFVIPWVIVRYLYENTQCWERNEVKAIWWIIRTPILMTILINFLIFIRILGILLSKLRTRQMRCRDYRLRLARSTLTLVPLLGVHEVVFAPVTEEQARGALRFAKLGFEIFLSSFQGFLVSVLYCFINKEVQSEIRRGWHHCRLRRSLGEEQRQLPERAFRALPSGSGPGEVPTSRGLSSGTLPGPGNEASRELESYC
Kind of assay: cell-based or functional assay.
Turning to B1, the “EC50, GIP Receptor cAMP induction” value turned out to be 0.48 nM and the “Relative Potency, GIP Receptor” value is 35.4%.

In the case of B2, the “EC50, GIP Receptor cAMP induction” value came to 0.064 nM and the “Relative Potency, GIP Receptor” value turned out to be 147%.

In the case of B3, the “EC50, GIP Receptor cAMP induction” value worked out at 2.5 nM and the “Relative Potency, GIP Receptor” value worked out at 8.4%.

With B4, the “EC50, GIP Receptor cAMP induction” value is 0.34 nM and the “Relative Potency, GIP Receptor” value turned out to be 50%.

Consider B5, for which the “EC50, GIP Receptor cAMP induction” value stood at 0.5 nM and the “Relative Potency, GIP Receptor” value was determined as 34%.

With B6, the “EC50, GIP Receptor cAMP induction” value is 0.57 nM and the “Relative Potency, GIP Receptor” value was found to be 36.8%.

In the case of B7, the “EC50, GIP Receptor cAMP induction” value came to 0.57 nM and the “Relative Potency, GIP Receptor” value was 36.8%.

For the origin of these results see patent US20140162945A1 (BEIJING HANMI PHARMACEUTICAL, published 2014).
